Blank lines part the entries; values can stand above or below the substance they belong to.
Tests used:
[1] = target: D3H44 light chain Q124E_V133W_T180E, N-terminal HA or FLAG tag; assay: LCCA, SPR of light chain tags, L1:L2 DNA 1:3 norm. to 1:1; other light chain m14
[2] = target: D3H44 light chain Q124R_T178R, N-terminal HA or FLAG tag; assay: LCCA, SPR of light chain tags, L1:L2 DNA 1:3 norm. to 1:1; other light chain m25
[3] = target: D3H44 light chain Q124E_T178E with N-terminal HA or FLAG tag; assay: LCCA (SPR tag readout), L1:L2 DNA 1:3, normalized to 1:1; competing light chain m9
[4] = target: D3H44 light chain Q124E_T178E_T180E with N-terminal HA or FLAG tag; assay: as above
[5] = target: D3H44 light chain Q124E_T180E with N-terminal HA or FLAG tag; assay: as above
[6] = target: D3H44 light chain Q124E_T178E with N-terminal HA or FLAG tag; assay: LCCA (SPR tag readout), L1:L2 DNA 1:9, normalized to 1:1; competing light chain m9
[7] = target: D3H44 light chain Q124E_T178E_T180E with N-terminal HA or FLAG tag; assay: as above
[8] = target: D3H44 light chain Q124R_T178R with N-terminal HA or FLAG tag; assay: LCCA (SPR tag readout), L1:L2 DNA 1:3, normalized to 1:1; competing light chain m10
[9] = target: D3H44 light chain Q124R_T178R with N-terminal HA or FLAG tag; assay: LCCA (SPR tag readout), L1:L2 DNA 1:3, normalized to 1:1; competing light chain m11
[10] = target: D3H44 light chain Q124E_T180E with N-terminal HA or FLAG tag; assay: LCCA (SPR tag readout), L1:L2 DNA 1:3, normalized to 1:1; competing light chain m12
[11] = target: D3H44 light chain Q124K_T178R with N-terminal HA or FLAG tag; assay: LCCA (SPR tag readout), L1:L2 DNA 1:3, normalized to 1:1; competing light chain m13
[12] = target: D3H44 light chain Q124R_Q160K_T178R with N-terminal HA or FLAG tag; assay: as above
[13] = target: D3H44 light chain Q124R_T178R with N-terminal HA or FLAG tag; assay: as above
[14] = target: D3H44 light chain T178R with N-terminal HA or FLAG tag; assay: as above
[15] = target: D3H44 light chain Q124E_T180E with N-terminal HA or FLAG tag; assay: LCCA (SPR tag readout), L1:L2 DNA 1:3, normalized to 1:1; competing light chain m14
[16] = target: D3H44 light chain Q124E_T180E with N-terminal HA or FLAG tag; assay: LCCA (SPR tag readout), L1:L2 DNA 1:3, normalized to 1:1; competing light chain m19
[17] = target: D3H44 light chain Q124R_T178R with N-terminal HA or FLAG tag; assay: LCCA (SPR tag readout), L1:L2 DNA 1:9, normalized to 1:1; competing light chain m10
[18] = target: D3H44 light chain Q124R_T178R with N-terminal HA or FLAG tag; assay: LCCA (SPR tag readout), L1:L2 DNA 1:9, normalized to 1:1; competing light chain m11
[19] = target: D3H44 light chain Q124E_S176L_T180E, N-terminal HA or FLAG tag; assay: LCCA, SPR of light chain tags, L1:L2 DNA 1:3 norm. to 1:1; other light chain m14
[20] = target: D3H44 light chain Q124R_T178R, N-terminal HA or FLAG tag; assay: LCCA, SPR of light chain tags, L1:L2 DNA 1:3 norm. to 1:1; other light chain m16
[21] = target: D3H44 light chain Q124E_T178E_T180E, N-terminal HA or FLAG tag; assay: LCCA, SPR of light chain tags, L1:L2 DNA 1:3 norm. to 1:1; other light chain m17
[22] = target: D3H44 light chain Q124R_Q160K_T178R, N-terminal HA or FLAG tag; assay: LCCA, SPR of light chain tags, L1:L2 DNA 1:3 norm. to 1:1; other light chain m21
[23] = target: D3H44 light chain Q124E_T178E_T180E, N-terminal HA or FLAG tag; assay: LCCA, SPR of light chain tags, L1:L2 DNA 1:9 norm. to 1:1; other light chain m17
[24] = target: D3H44 light chain Q124R_Q160K_T178R, N-terminal HA or FLAG tag; assay: LCCA, SPR of light chain tags, L1:L2 DNA 1:9 norm. to 1:1; other light chain m21
[25] = target: D3H44 light chain Q124E_T180E, N-terminal HA or FLAG tag; assay: LCCA, L1:L2 DNA 1:3, SPR of light chain tags; competing light chain m10
[26] = target: D3H44 light chain Q124R_T178K, N-terminal HA or FLAG tag; assay: LCCA, L1:L2 DNA 1:3, SPR of light chain tags; competing light chain m11
[27] = target: D3H44 light chain Q124R_T178R, N-terminal HA or FLAG tag; assay: as above
[28] = target: D3H44 light chain Q124E_Q160E_T180E, N-terminal HA or FLAG tag; assay: LCCA, L1:L2 DNA 1:3, SPR of light chain tags; competing light chain m12
[29] = target: D3H44 light chain Q124R_Q160K_T178R, N-terminal HA or FLAG tag; assay: LCCA, L1:L2 DNA 1:3, SPR of light chain tags; competing light chain m13
[30] = target: D3H44 light chain T178R, N-terminal HA or FLAG tag; assay: as above
[31] = target: D3H44 light chain Q124E_T180E, N-terminal HA or FLAG tag; assay: LCCA, L1:L2 DNA 1:3, SPR of light chain tags; competing light chain m14
[32] = target: D3H44 light chain Q124E_Q160E_T180E, N-terminal HA or FLAG tag; assay: LCCA, L1:L2 DNA 1:3, SPR of light chain tags; competing light chain m16
[33] = target: D3H44 light chain Q124R_T178K, N-terminal HA or FLAG tag; assay: LCCA, L1:L2 DNA 1:9, SPR of light chain tags; competing light chain m11
[34] = target: D3H44 light chain Q124R_T178R, N-terminal HA or FLAG tag; assay: as above
[35] = target: D3H44 light chain Q124E_Q160E_T180E, N-terminal HA or FLAG tag; assay: LCCA, L1:L2 DNA 1:9, SPR of light chain tags; competing light chain m12
[36] = target: D3H44 light chain Q124E_Q160E_T180E, N-terminal HA or FLAG tag; assay: LCCA, L1:L2 DNA 1:9, SPR of light chain tags; competing light chain m16
[37] = target: tissue factor (TF) antigen (UniProt P13726); assay: SPR, Fab captured on anti-penta-His surface, TF as analyte, 1:1 fit; Fab batch C
[38] = target: tissue factor (TF) antigen (UniProt P13726); assay: SPR, Fab captured on anti-penta-His surface, TF as analyte, 1:1 fit; Fab batch C; against wild-type D3H44 Fab
[39] = target: tissue factor (TF) antigen (UniProt P13726); assay: SPR, Fab captured on anti-penta-His surface, TF as analyte, 1:1 fit; estimated value, from a Fab that differs only in the L chain tag
[40] = target: tissue factor (TF) antigen (UniProt P13726); assay: SPR, Fab captured on anti-penta-His surface, TF as analyte, 1:1 fit; estimated value, from a Fab that differs only in the L chain tag; against wild-type D3H44 Fab
[41] = target: D3H44 Fab heavy chain L143E_K145T_Q179E, ABD2-His6 tagged; assay: LCCA, SPR of light chain tags; L1:L2 DNA 1:3 normalized to 1:1; competing light chain m16
[42] = target: D3H44 Fab heavy chain S186K, ABD2-His6 tagged; assay: as above
[43] = target: D3H44 Fab heavy chain L143E_K145T_Q179E, ABD2-His6 tagged; assay: LCCA, SPR of light chain tags; L1:L2 DNA 1:9 normalized to 1:1; competing light chain m16
[44] = target: D3H44 Fab heavy chain S186K, ABD2-His6 tagged; assay: as above
[45] = target: D3H44 Fab heavy chain Q179R, ABD2-His6 tagged; assay: LCCA, SPR of light chain tags; L1:L2 DNA 1:3 normalized to 1:1; competing light chain m16
[46] = target: D3H44 Fab heavy chain Q179R, ABD2-His6 tagged; assay: LCCA, SPR of light chain tags; L1:L2 DNA 1:9 normalized to 1:1; competing light chain m16
[47] = target: tissue factor (TF) antigen (UniProt P13726); assay: SPR, Fab captured on anti-penta-His, TF as analyte, 1:1 fit; batch C (+)
[48] = target: tissue factor (TF) antigen (UniProt P13726); assay: vs wild-type D3H44 Fab (KD 0.157 nM); SPR, Fab captured on anti-penta-His, TF as analyte; batch C (+)

Substance: D3H44 Fab heavy chain L124A_Q179K, ABD2-His6 tagged
H1L1:H1L2 normalized median ratio [1]: 95%
H1L1:H1L2 normalized median scalar value ln(r1/f1) [1]: 2.9
H1L1:H1L2 normalized median ratio [2]: 5%

Substance: D3H44 Fab heavy chain L124A_S186K, ABD2-His6 tagged
H1L1:H1L2 normalized median ratio [1]: 95%
H1L1:H1L2 normalized median scalar value ln(r1/f1) [1]: 2.98
H1L1:H1L2 normalized median ratio [2]: 5%

Substance: D3H44 Fab heavy chain S186R with C-terminal ABD2-His6 tag
H2L2:H2L1 normalized median ratio [3]: 96%
H2L2:H2L1 normalized median ratio [4]: 93%
H2L2:H2L1 normalized median ratio [5]: 96%
H2L2:H2L1 normalized median ratio [6]: 82%
H2L2:H2L1 normalized median ratio [7]: 82%
H2L2:H2L1 normalized median ratio [8]: 7%
H2L2:H2L1 normalized median ratio [9]: 4%
H2L2:H2L1 normalized median ratio [10]: 97%
H2L2:H2L1 normalized median ratio [11]: 3%
H2L2:H2L1 normalized median ratio [12]: 2%
H2L2:H2L1 normalized median ratio [13]: 4%
H2L2:H2L1 normalized median ratio [14]: 4%
H2L2:H2L1 normalized median ratio [15]: 98%
H2L2:H2L1 normalized median ratio [16]: 96%
H2L2:H2L1 normalized median ratio [17]: 18%
H2L2:H2L1 normalized median ratio [18]: 18%

Substance: D3H44 H1L1 Fab heterodimer of LCCA Set # 9626 (H1 L143E_K145T_Q179D; L1 Q124R_T178K)
Kd [37]: 0.12 nM
change in median KD compared to wild type, -(log(KD design)-log(KD wt)) [38]: 0.12
Kd [39]: 0.12 nM
change in median KD compared to wild type, -(log(KD design)-log(KD wt)) [40]: 0.12

Substance: H1L1 Fab heterodimer of LCCA set 9620 (D3H44 Fab, H1 L143E_K145T_Q179D, L1 Q124R_Q160K_T178R)
Kd [47]: 0.06 nM
change in median KD compared to wild type, -(log(KD design)-log(KD wt)) [48]: 0.39

Next, values leading:

H2L2:H2L1 normalized median ratio [19]: 93%
H2L2:H2L1 normalized median ratio [20]: 7%
H2L2:H2L1 normalized median ratio [21]: 94%
H2L2:H2L1 normalized median ratio [22]: 6%
H2L2:H2L1 normalized median ratio [23]: 87%
H2L2:H2L1 normalized median ratio [24]: 13%
Substance: D3H44 Fab heavy chain S186R, ABD2-His6 tagged

H2L2:H2L1 normalized median ratio [25]: 96 share of 100
H2L2:H2L1 normalized median ratio [26]: 17 share of 100
H2L2:H2L1 normalized median ratio [27]: 19 share of 100
H2L2:H2L1 normalized median ratio [28]: 81 share of 100
H2L2:H2L1 normalized median ratio [29]: 2 share of 100
H2L2:H2L1 normalized median ratio [30]: 4 share of 100
H2L2:H2L1 normalized median ratio [31]: 98 share of 100
H2L2:H2L1 normalized median ratio [32]: 83 share of 100
H2L2:H2L1 normalized median ratio [33]: 11 share of 100
H2L2:H2L1 normalized median ratio [34]: 14 share of 100
H2L2:H2L1 normalized median ratio [35]: 86 share of 100
H2L2:H2L1 normalized median ratio [36]: 89 share of 100
Substance: D3H44 Fab heavy chain S186R, C-terminal ABD2-His6 tag

Kd [37]: 0.19 nM
change in median KD compared to wild type, -(log(KD design)-log(KD wt)) [38]: -0.08
Kd [39]: 0.19 nM
change in median KD compared to wild type, -(log(KD design)-log(KD wt)) [40]: -0.08
Substance: D3H44 H1L1 Fab heterodimer of LCCA Set # 9657 (H1 L143E_K145T_Q179E; L1 Q124R_T178K)

Kd [39]: 0.24 nM
change in median KD compared to wild type, -(log(KD design)-log(KD wt)) [40]: -0.19
Substance: D3H44 H1L1 Fab heterodimer of LCCA Set # 9707 (H1 L143E_K145T_S188L; L1 Q124R_Q160K_T178R)

H1L1:H1L2 normalized median ratio [41]: 9%
H2L2:H2L1 normalized median ratio [42]: 94%
H1L1:H1L2 normalized median ratio [43]: 22%
H2L2:H2L1 normalized median ratio [44]: 94%
Substance: D3H44 light chain Q124E_Q160E_T180E, HA or FLAG tagged

H1L1:H1L2 normalized median ratio [41]: 8%
H2L2:H2L1 normalized median ratio [45]: 94%
H2L2:H2L1 normalized median ratio [42]: 95%
H1L1:H1L2 normalized median ratio [43]: 8%
H2L2:H2L1 normalized median ratio [46]: 90%
H2L2:H2L1 normalized median ratio [44]: 89%
Substance: D3H44 light chain Q124E_T178E_T180E, HA or FLAG tagged

From US11306156
